From US20160152957A1, “Methods of Producing 6-Carbon Monomers From 8-Carbon Compounds” (INVISTA North America S.á.r.l., priority 2014, published 2016)

B1: SEQ ID NO 7: Chromobacterium violaceum ω-transaminase, Genbank Accession No. AAQ59697.1, N-terminal HIS tagged (protein, listed as Chromobacterium violaceum)
chain: MQKQRTTSQWRELDAAHHLHPFTDTASLNQAGARVMTRGEGVYLWDSEGNKIIDGMAGLWCVNVGYGRKDFAEAARRQMEELPFYNTFFKTTHPAVVELSSLLAEVTPAGFDRVFYTNSGSESVDTMIRMVRRYWDVQGKPEKKTLIGRWNGYHGSTIGGASLGGMKYMHEQGDLPIPGMAHIEQPWWYKHGKDMTPDEFGVVAARWLEEKILEIGADKVAAFVGEPIQGAGGVIVPPATYWPEIERICRKYDVLLVADEVICGFGRTGEWFGHQHFGFQPDLFTAAKGLSSGYLPIGAVFVGKRVAEGLIAGGDFNHGFTYSGHPVCAAVAHANVAALRDEGIVQRVKDDIGPYMQKRWRETFSRFEHVDDVRGVGMVQAFTLVKNKAKRELFPDFGEIGTLCRDIFFRNNLIMRACGDHIVSAPPLVMTRAEVDEMLAVAERCLEEFEQTLKARGLA
modifications: N-terminal His tag
B2: SEQ ID NO 9: Pseudomonas syringae ω-transaminase, Genbank Accession No. AAY39893.1, N-terminal HIS tagged (protein, listed as Pseudomonas syringae)
chain: MSANNPQTLEWQALSSEHHLAPFSDYKQLKEKGPRIITRAEGVYLWDSEGNKILDGMSGLWCVAIGYGREELADAASKQMRELPYYNLFFQTAHPPVLELAKAISDIAPEGMNHVFFTGSGSEGNDTMLRMVRHYWALKGQPNKKTIISRVNGYHGSTVAGASLGGMTYMHEQGDLPIPGVVHIPQPYWFGEGGDMTPDEFGIWAAEQLEKKILELGVENVGAFIAEPIQGAGGVIVPPDSYWPKIKEILSRYDILFAADEVICGFGRTSEWFGSDFYGLRPDMMTIAKGLTSGYVPMGGLIVRDEIVAVLNEGGDFNHGFTYSGHPVAAAVALENIRILREEKIVERVRSETAPYLQKRLRELSDHPLVGEVRGVGLLGAIELVKDKTTRERYTDKGAGMICRTFCFDNGLIMRAVGDTMIIAPPLVISFAQIDELVEKARTCLDLTLAVLQG
modifications: N-terminal His tag
B3: SEQ ID NO 12: Vibrio fluvialis ω-transaminase, Genbank Accession No. AEA39183.1, N-terminal HIS tagged (protein, listed as Vibrio fluvialis)
chain: MNKPQSWEARAETYSLYGFTDMPSLHQRGTVVVTHGEGPYIVDVNGRRYLDANSGLWNMVAGFDHKGLIDAAKAQYERFPGYHAFFGRMSDQTVMLSEKLVEVSPFDSGRVFYTNSGSEANDTMVKMLWFLHAAEGKPQKRKILTRWNAYHGVTAVSASMTGKPYNSVFGLPLPGFVHLTCPHYWRYGEEGETEEQFVARLARELEETIQREGADTIAGFFAEPVMGAGGVIPPAKGYFQAILPILRKYDIPVISDEVICGFGRTGNTWGCVTYDFTPDAIISSKNLTAGFFPMGAVILGPELSKRLETAIEAIEEFPHGFTASGHPVGCAIALKAIDVVMNEGLAENVRRLAPRFEERLKHIAERPNIGEYRGIGFMWALEAVKDKASKTPFDGNLSVSERIANTCTDLGLICRPLGQSVVLCPPFILTEAQMDEMFDKLEKALDKVFAEVA
modifications: N-terminal His tag
B4: SEQ ID NO 8: Pseudomonas aeruginosa ω-transaminase, Genbank Accession No. AAG08191.1, N-terminal HIS tagged (protein, listed as Pseudomonas aeruginosa)
chain: MNARLHATSPLGDADLVRADQAHYMHGYHVFDDHRVNGSLNIAAGDGAYIYDTAGNRYLDAVGGMWCTNIGLGREEMARTVAEQTRLLAYSNPFCDMANPRAIELCRKLAELAPGDLDHVFLTTGGSTAVDTAIRLMHYYQNCRGKRAKKHVITRINAYHGSTFLGMSLGGKSADRPAEFDFLDERIHHLACPYYYRAPEGLGEAEFLDGLVDEFERKILELGADRVGAFISEPVFGSGGVIVPPAGYHRRMWELCQRYDVLYISDEVVTSFGRLGHFFASQAVFGVQPDIILTAKGLTSGYQPLGACIFSRRIWEVIAEPDKGRCFSHGFTYSGHPVACAAALKNIEIIEREGLLAHADEVGRYFEERLQSLRDLPIVGDVRGMRFMACVEFVADKASKALFPESLNIGEWVHLRAQKRGLLVRPIVHLNVMSPPLILTREQVDTVVRVLRESIEETVEDLVRAGHR
modifications: N-terminal His tag
B5: SEQ ID NO 6: Segniliparus rotundus carboxylate reductase, Genbank Accession No. ADG98140.1, N-terminal HIS tagged (protein, listed as Segniliparus rotundus)
chain: MTQSHTQGPQASAAHSRLARRAAELLATDPQAAATLPDPEVVRQATRPGLRLAERVDAILSGYADRPALGQRSFQTVKDPITGRSSVELLPTFDTITYRELRERATAIASDLAHHPQAPAKPGDFLASIGFISVDYVAIDIAGVFAGLTAVPLQTGATLATLTAITAETAPTLFAASIEHLPTAVDAVLATPSVRRLLVFDYRAGSDEDREAVEAAKRKIADAGSSVLVDVLDEVIARGKSAPKAPLPPATDAGDDSLSLLIYTSGSTGTPKGAMYPERNVAHFWGGVWAAAFDEDAAPPVPAINITFLPLSHVASRLSLMPTLARGGLMHFVAKSDLSTLFEDLKLARPTNLFLVPRVVEMLYQHYQSELDRRGVQDGTREAEAVKDDLRTGLLGGRILTAGFGSAPLSAELAGFIESLLQIHLVDGYGSTEAGPVWRDGYLVKPPVTDYKLIDVPELGYFSTDSPHPRGELAIKTQTILPGYYKRPETTAEVFDEDGFYLTGDVVAQIGPEQFAYVDRRKNVLKLSQGEFVTLAKLEAAYSSSPLVRQLFVYGSSERSYLLAVIVPTPDALKKFGVGEAAKAALGESLQKIARDEGLQSYEVPRDFIIETDPFTVENGLLSDARKSLRPKLKEHYGERLEAMYKELADGQANELRDIRRGVQQRPTLETVRRAAAAMLGASAAEIKPDAHFTDLGGDSLSALTFSNFLHDLFEVDVPVGVIVSAANTLGSVAEHIDAQLAGGRARPTFATVHGKGSTTIKASDLTLDKFIDEQTLEAAKHLPKPADPPRTVLLTGANGWLGRFLALEWLERLAPAGGKLITIVRGKDAAQAKARLDAAYESGDPKLAGHYQDLAATTLEVLAGDFSEPRLGLDEATWNRLADEVDFISHPGALVNHVLPYNQLFGPNVAGVAEIIKLAITTRIKPVTYLSTVAVAAGVEPSALDEDGDIRTVSAERSVDEGYANGYGNSKWGGEVLLREAHDRTGLPVRVFRSDMILAHQKYTGQVNATDQFTRLVQSLLATGLAPKSFYELDAQGNRQRAHYDGIPVDFTAESITTLGGDGLEGYRSYNVFNPHRDGVGLDEFVDWLIEAGHPITRIDDYDQWLSRFETSLRGLPESKRQASVLPLLHAFARPGPAVDGSPFRNTVFRTDVQKAKIGAEHDIPHLGKALVLKYADDIKQLGLL
modifications: N-terminal His tag

Experiments:
Type in all cases: biochemical
[1] = ω-transaminase enzyme activity assay, reverse direction (6-aminohexanoate to adipate semialdehyde); settings: cell free extract, 10 mM 6-aminohexanoate, 10 mM pyruvate, pH 7.5, 25° C., 24 h, RP-HPLC, against the empty vector control
Procedure: (§1) A nucleotide sequence encoding a His-tag was added to the nucleic acid sequences from Chromobacterium violaceum, Pseudomonas aeruginosa, Pseudomonas syringae, Rhodobacter sphaeroides, and Vibrio fluvialis encoding the ω-transaminases of SEQ ID NOs: 7, 8, 9, 10 and 12, respectively (see FIG. 6) such that N-terminal HIS tagged ω-transaminases could be produced. Each of the resulting modified genes was cloned into a pET21a expression vector under control of the T7 promoter and each expression vector was transformed into a BL21[DE3] E. coli host. The resulting recombinant E. coli strains were cultivated at 37° C. in a 250 mL shake flask culture containing 50 mL LB media and antibiotic selection pressure, with shaking at 230 rpm. Each culture was induced overnight at 16° C. using 1 mM IPTG.
(§2) The pellet from each induced shake flask culture was harvested via centrifugation. Each pellet was resuspended and lysed via sonication. The cell debris was separated from the supernatant via centrifugation and the cell free extract was used immediately in enzyme activity assays.
Enzyme activity assays in the reverse direction (i.e., 6-aminohexanoate to adipate semialdehyde) were performed in a buffer composed of a final concentration of 50 mM HEPES buffer (pH=7.5), 10 mM 6-aminohexanoate, 10 mM pyruvate and 100 μM pyridoxyl 5′ phosphate. Each enzyme activity assay reaction was initiated by adding cell free extract of the ω-transaminase gene product or the empty vector control to the assay buffer containing the 6-aminohexanoate and incubated at 25° C. for 24 h, with shaking at 250 rpm. The formation of L-alanine from pyruvate was quantified via RP-HPLC.

[2] = ω-transaminase enzyme activity assay, forward direction (adipate semialdehyde to 6-aminohexanoate); settings: cell free extract, 10 mM adipate semialdehyde, 10 mM L-alanine, pH 7.5, 25° C., 4 h, RP-HPLC, against the empty vector control
Procedure: as §1, §2
Enzyme activity in the forward direction (i.e., adipate semialdehyde to 6-aminohexanoate) was confirmed for the transaminases of SEQ ID NO 7, SEQ ID NO 8, SEQ ID NO 9, SEQ ID NO 10 and SEQ ID NO 12. Enzyme activity assays were performed in a buffer composed of a final concentration of 50 mM HEPES buffer (pH=7.5), 10 mM adipate semialdehyde, 10 mM L-alanine and 100 μM pyridoxyl 5′ phosphate. Each enzyme activity assay reaction was initiated by adding a cell free extract of the ω-transaminase gene product or the empty vector control to the assay buffer containing the adipate semialdehyde and incubated at 25° C. for 4 h, with shaking at 250 rpm. The formation of pyruvate was quantified via RP-HPLC.

[3] = carboxylate reductase enzyme activity assay (adipate semialdehyde to hexanedial); settings: purified enzyme enhanced by the gene product of sfp, 2 mM adipate semialdehyde, pH 7.5, room temperature, 20 min, against the empty vector control
Procedure: The N-terminal His-tagged carboxylate reductase of SEQ ID NO 6 (see Example 2 and FIG. 6) was assayed using adipate semialdehyde as substrate. The enzyme activity assay was performed in triplicate in a buffer composed of a final concentration of 50 mM HEPES buffer (pH=7.5), 2 mM adipate semialdehyde, 10 mM MgCl2, 1 mM ATP and 1 mM NADPH. The enzyme activity assay reaction was initiated by adding purified carboxylate reductase and phosphopantetheine transferase or the empty vector control to the assay buffer containing the adipate semialdehyde and then incubated at room temperature for 20 min. The consumption of NADPH was monitored by absorbance at 340 nm.

| Molecule | ω-transaminase activity for converting 6-aminohexanoate to adipate semialdehyde (formation of L-alanine from pyruvate) [1] | ω-transaminase activity for converting adipate semialdehyde to 6-aminohexanoate (formation of pyruvate from L-alanine) [2] | carboxylate reductase activity for converting adipate semialdehyde to hexanedial (consumption of NADPH, absorbance at 340 nm) [3] |
| --- | --- | --- | --- |
| SEQ ID NO 10: Rhodobacter sphaeroides ω-transaminase, Genbank Accession No. ABA81135.1, N-terminal HIS tagged | accepted 6-aminohexanoate as substrate | accepted adipate semialdehyde as substrate | – |
| B1 | accepted 6-aminohexanoate as substrate | accepted adipate semialdehyde as substrate | – |
| B2 | accepted 6-aminohexanoate as substrate | accepted adipate semialdehyde as substrate | – |
| B3 | accepted 6-aminohexanoate as substrate | accepted adipate semialdehyde as substrate | – |
| B4 | – | accepted adipate semialdehyde as substrate | – |
| B5 | – | – | accepted adipate semialdehyde as substrate |
